Bridge positions count the residues as written; N and C are the ends. Square brackets hold non-standard residues; d marks the D form. Ends that are not written are not given here. NMeA = CN[C@@H](C)C(=O)O; Sar = CNCC(=O)O
Assays:
[1] = molecular target: T1, human collagen type I, acid soluble, extracted from placenta (Sigma C7774) (human, UniProt P02452 162-1218; P08123 80-1119); test: dried collagen assay
T1 construct: tissue extract, gelled and dried in wells; also called dried human collagen; h-Collagen
T1 sequence (P02452 162-1218 limits assumed, chain 1 of 2): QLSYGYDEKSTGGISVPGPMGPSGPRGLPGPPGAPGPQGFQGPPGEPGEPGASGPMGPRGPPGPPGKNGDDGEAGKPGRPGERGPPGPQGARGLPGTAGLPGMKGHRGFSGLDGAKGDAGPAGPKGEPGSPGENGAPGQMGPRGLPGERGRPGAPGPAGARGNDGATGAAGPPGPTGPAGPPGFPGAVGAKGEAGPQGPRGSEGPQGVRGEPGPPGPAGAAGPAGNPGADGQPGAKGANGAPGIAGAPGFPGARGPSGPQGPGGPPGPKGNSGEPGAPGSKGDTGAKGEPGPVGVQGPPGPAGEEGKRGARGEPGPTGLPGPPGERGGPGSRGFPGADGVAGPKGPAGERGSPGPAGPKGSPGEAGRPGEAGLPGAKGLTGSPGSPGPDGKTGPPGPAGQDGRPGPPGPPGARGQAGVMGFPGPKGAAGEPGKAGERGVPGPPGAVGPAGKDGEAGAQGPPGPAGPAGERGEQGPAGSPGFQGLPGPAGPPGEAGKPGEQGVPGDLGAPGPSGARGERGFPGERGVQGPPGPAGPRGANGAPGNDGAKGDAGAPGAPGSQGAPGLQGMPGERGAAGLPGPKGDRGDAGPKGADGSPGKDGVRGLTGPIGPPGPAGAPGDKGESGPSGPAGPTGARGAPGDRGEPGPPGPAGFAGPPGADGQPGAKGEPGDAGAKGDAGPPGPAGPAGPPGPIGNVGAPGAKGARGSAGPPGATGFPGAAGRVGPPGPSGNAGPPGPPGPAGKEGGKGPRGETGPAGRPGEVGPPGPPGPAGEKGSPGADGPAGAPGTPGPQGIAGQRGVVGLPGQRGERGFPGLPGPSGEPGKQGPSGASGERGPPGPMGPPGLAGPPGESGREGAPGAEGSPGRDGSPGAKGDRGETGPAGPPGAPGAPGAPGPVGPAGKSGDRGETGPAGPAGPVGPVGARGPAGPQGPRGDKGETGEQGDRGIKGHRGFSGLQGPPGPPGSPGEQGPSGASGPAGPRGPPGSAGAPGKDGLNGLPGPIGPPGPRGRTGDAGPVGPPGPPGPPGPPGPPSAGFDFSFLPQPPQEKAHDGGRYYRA
T1 sequence (P08123 80-1119 limits assumed, chain 2 of 2): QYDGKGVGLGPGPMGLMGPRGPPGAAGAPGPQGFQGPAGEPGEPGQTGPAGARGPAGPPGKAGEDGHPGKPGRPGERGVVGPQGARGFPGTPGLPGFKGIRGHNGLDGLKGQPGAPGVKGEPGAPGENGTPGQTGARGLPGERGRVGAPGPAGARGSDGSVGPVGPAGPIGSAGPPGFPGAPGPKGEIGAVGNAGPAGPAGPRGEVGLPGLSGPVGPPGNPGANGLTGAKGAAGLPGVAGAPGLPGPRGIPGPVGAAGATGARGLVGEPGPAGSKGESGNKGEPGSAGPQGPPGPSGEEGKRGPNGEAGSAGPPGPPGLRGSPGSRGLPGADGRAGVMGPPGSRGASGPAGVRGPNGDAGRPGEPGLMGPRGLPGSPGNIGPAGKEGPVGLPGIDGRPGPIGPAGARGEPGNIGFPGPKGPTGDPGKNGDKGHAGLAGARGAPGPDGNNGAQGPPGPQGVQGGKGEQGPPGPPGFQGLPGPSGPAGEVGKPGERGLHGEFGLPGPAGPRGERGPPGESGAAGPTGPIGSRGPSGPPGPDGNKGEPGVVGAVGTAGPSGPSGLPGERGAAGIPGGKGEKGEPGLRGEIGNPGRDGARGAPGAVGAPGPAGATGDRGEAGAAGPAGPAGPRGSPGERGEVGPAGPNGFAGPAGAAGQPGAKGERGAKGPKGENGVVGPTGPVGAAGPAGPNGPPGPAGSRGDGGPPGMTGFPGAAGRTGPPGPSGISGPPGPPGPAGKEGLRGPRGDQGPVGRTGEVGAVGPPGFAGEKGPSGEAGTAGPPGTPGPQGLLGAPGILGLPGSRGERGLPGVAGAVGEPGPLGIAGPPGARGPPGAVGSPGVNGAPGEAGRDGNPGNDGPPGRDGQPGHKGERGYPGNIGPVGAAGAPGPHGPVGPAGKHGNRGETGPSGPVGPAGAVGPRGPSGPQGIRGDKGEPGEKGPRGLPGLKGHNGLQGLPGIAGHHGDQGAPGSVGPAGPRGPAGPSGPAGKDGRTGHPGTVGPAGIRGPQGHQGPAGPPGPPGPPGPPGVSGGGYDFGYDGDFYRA
Description: (§1) An additional 90 μL is reserved in a HPLC glass vial as a measure of the total concentration.

[2] = molecular target: T2, rat collagen, acid soluble, type I, rat tail (Upstate 08-115) (rat, UniProt P02454 152-1207; P02466 86-1125); test: dried collagen assay
T2 construct: tissue extract, gelled and dried in wells; also called dried rat collagen
T2 sequence (P02454 152-1207, chain 1 of 2): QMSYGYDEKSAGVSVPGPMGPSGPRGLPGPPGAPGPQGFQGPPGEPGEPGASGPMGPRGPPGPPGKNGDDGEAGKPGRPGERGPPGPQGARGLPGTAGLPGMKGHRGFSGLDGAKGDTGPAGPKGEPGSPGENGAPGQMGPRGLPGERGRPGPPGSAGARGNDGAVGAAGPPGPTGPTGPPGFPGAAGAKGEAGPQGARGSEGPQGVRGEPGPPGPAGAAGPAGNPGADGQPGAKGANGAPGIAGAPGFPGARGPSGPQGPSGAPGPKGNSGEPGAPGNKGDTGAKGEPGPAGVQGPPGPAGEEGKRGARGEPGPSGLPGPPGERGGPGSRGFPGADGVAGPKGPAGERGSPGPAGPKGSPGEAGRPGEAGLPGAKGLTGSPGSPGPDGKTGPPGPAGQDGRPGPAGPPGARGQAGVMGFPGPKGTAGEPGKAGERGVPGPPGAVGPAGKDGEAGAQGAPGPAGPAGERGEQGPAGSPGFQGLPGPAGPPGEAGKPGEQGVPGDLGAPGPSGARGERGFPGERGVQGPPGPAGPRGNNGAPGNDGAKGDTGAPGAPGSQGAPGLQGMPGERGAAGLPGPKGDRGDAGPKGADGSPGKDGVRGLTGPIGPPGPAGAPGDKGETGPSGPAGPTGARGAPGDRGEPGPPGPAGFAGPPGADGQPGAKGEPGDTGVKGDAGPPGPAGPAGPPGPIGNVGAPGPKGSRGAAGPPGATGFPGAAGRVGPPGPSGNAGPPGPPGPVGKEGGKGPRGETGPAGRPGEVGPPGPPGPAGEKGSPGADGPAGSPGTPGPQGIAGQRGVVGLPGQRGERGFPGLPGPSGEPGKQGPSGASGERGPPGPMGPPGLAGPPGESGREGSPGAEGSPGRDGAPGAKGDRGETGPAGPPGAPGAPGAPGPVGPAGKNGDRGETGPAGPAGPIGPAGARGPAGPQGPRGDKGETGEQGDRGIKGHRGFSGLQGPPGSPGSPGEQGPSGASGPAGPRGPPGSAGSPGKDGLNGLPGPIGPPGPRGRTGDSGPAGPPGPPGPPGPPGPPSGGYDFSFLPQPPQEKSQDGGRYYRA
T2 sequence (P02466 86-1125, chain 2 of 2): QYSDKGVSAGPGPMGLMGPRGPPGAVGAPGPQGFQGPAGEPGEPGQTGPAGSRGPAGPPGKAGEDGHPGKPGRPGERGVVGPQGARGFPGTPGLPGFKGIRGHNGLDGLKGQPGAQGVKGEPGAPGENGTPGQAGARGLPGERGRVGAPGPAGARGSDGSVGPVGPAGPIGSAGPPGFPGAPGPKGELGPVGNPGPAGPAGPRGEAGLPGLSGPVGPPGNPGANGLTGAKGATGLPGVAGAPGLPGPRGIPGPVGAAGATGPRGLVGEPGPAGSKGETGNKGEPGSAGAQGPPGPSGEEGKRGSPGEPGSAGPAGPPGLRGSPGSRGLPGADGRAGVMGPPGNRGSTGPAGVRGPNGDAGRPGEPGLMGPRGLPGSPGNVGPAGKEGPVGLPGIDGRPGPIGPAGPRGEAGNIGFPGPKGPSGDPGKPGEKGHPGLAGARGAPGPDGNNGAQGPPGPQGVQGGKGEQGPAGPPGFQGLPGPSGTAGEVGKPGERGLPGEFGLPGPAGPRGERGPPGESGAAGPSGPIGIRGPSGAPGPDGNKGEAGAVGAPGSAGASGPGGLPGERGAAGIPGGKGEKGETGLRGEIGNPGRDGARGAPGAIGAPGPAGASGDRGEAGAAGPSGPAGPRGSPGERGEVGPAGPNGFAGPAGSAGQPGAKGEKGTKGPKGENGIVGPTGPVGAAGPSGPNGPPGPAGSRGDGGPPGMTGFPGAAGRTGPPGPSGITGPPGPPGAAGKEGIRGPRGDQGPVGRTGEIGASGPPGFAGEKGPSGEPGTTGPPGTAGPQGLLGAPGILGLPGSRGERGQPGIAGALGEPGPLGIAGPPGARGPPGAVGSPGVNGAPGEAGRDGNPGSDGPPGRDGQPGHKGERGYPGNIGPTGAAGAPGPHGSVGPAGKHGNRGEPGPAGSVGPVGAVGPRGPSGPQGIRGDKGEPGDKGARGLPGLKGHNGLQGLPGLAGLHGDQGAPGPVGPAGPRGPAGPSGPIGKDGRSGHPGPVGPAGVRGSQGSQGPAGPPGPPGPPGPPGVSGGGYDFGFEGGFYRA
Description: as §1

Binder	% bound [1] [%]	% bound [2] [%]
GQWTCSGDEYTWHCNY (disulfide 5-14 (inferred), cyclic, disulfide) [SEQ ID NO 123]	59	72
YHACYQ[NMeA]GCWIW (disulfide 4-9 (inferred), cyclic, disulfide; also called YHACYQA'GCWIW) [SEQ ID NO 105]	9	23
QWTCSGDEYTW[dH]CNYE (disulfide 4-13 (inferred); not fully specified (N-terminus); printed as QWTCSGDEYTWhCNYE, cyclic, disulfide) [SEQ ID NO 174]		0
YHASYQAGSWIW (printed without cysteines (S for C)) [SEQ ID NO 111]	0	24
YSACYQAGCWIW (disulfide 4-9 (inferred), cyclic, disulfide) [SEQ ID NO 109]	21	37
YHACYQAACWIW (disulfide 4-9 (inferred), cyclic, disulfide) [SEQ ID NO 135]	72	88
AHACYQAGCWIW (disulfide 4-9 (inferred), cyclic, disulfide) [SEQ ID NO 131]	7	12
YHACYQAGCWIA (disulfide 4-9 (inferred), cyclic, disulfide) [SEQ ID NO 138]	2	1
YHACYAAGCWIW (disulfide 4-9 (inferred), cyclic, disulfide) [SEQ ID NO 134]	14	1
KWHCELDSHMEWSCSGH (disulfide 4-14 (inferred), cyclic, disulfide) [SEQ ID NO 89]	1	
YHACYQAG[dC]WIW (disulfide 4-9 (inferred); not fully specified (C-terminus); printed as YHACYQAGcWIW, cyclic, disulfide) [SEQ ID NO 159]		27
DWTCSGNHLTWYCNYG (disulfide 4-13 (inferred), cyclic, disulfide) [SEQ ID NO 118]	68	67
GQWTCSGDEYTWHCNYE (disulfide 5-14 (inferred), cyclic, disulfide) [SEQ ID NO 122]	71	71
PWTCSGDEYAWHCNY[dE] (disulfide 4-13 (inferred), cyclic, disulfide) [SEQ ID NO 121]	57	72
GQWTCSGDAYTWHCNYE (disulfide 5-14 (inferred); not fully specified (C-terminus), cyclic, disulfide) [SEQ ID NO 144]	87	77
GQWTCSGDEYTWACNYE (disulfide 5-14 (inferred); not fully specified (C-terminus), cyclic, disulfide) [SEQ ID NO 148]	66	73
GQWTCSGDEYAWHCNY[dE] (disulfide 5-14 (inferred), cyclic, disulfide) [SEQ ID NO 126]	68	73
GQWTCSGDEYTWHCNAE (disulfide 5-14 (inferred); not fully specified (C-terminus), cyclic, disulfide) [SEQ ID NO 150]	16	9
GQWTCSGAEYTWHCNYE (disulfide 5-14 (inferred), cyclic, disulfide) [SEQ ID NO 143]	66	51
GQWTCAGDEYTWHCNYE (disulfide 5-14 (inferred), cyclic, disulfide) [SEQ ID NO 141]	87	83
DWTCSGDPYTWHCNYE (disulfide 4-13 (inferred), cyclic, disulfide) [SEQ ID NO 115]	39	23
QWTCSGDEYAWHCNYE (disulfide 4-13 (inferred); not fully specified (N-terminus, C-terminus), cyclic, disulfide) [SEQ ID NO 146]	82	77
GQWTCSGDEYTWHCNYA (disulfide 5-14 (inferred); not fully specified (C-terminus), cyclic, disulfide) [SEQ ID NO 151]	87	81
GQWTCSGDEYTAHCNYE (disulfide 5-14 (inferred); not fully specified (C-terminus), cyclic, disulfide) [SEQ ID NO 147]		1

Binder	% bound [1] [%]	% bound [2] [%]
DWTCSGDEFTWHCNYE (disulfide 4-13 (inferred), cyclic, disulfide) [SEQ ID NO 119]	55	55
GQWTCSGDEYTWSCNYE (disulfide 5-14 (inferred), cyclic, disulfide) [SEQ ID NO 127]	80	73
GQATCSGDEYTWHCNYE (disulfide 5-14 (inferred), cyclic, disulfide) [SEQ ID NO 139]	1	0
DWTCS[dY]DEYTWHCNYE (disulfide 4-13 (inferred), cyclic, disulfide) [SEQ ID NO 182]	89	86
DWTCSGDEYAWHCNY[dE] (disulfide 4-13 (inferred), cyclic, disulfide) [SEQ ID NO 120]	38	28
GQWTCSGDEATWHCNYE (disulfide 5-14 (inferred); not fully specified (C-terminus), cyclic, disulfide) [SEQ ID NO 145]	68	50
GQWTCSGDEY[dA]WHCNA[dE] (disulfide 5-14 (inferred), cyclic, disulfide) [SEQ ID NO 124]	24	17
HWTCDQAKGGAWSCSST (disulfide 4-14 (inferred), cyclic, disulfide) [SEQ ID NO 87]	1	
TWACGWTTTGWDNCRWI (disulfide 4-14 (inferred), cyclic, disulfide) [SEQ ID NO 92]	34	
SWYCDWDDRKGWMCGSD (disulfide 4-14 (inferred), cyclic, disulfide) [SEQ ID NO 86]	2	
TWACGWTTTGWDNCRWI (disulfide 4-14 (inferred), cyclic, disulfide) [SEQ ID NO 90]	34	
TWACGWTTAGWDNCRWI (disulfide 4-14 (inferred), cyclic, disulfide) [SEQ ID NO 91]	28	
WTCSGDEYTWHCNYE (disulfide 3-12 (inferred), cyclic, disulfide) [SEQ ID NO 114]	19	14
DWTCSGDHLTWHCNYG (disulfide 4-13 (inferred), cyclic, disulfide) [SEQ ID NO 116]	58	35
DWTCSGDHLTWKCNYG (disulfide 4-13 (inferred), cyclic, disulfide) [SEQ ID NO 117]	38	24
FWTCMRDQVGEWHCGTE (disulfide 4-14 (inferred), cyclic, disulfide) [SEQ ID NO 88]	1	
QWT[dC]SGDEYTWHCNYE (disulfide 4-13 (inferred); not fully specified (N-terminus, C-terminus); printed as QWTcSGDEYTWHCNYE, cyclic, disulfide) [SEQ ID NO 167]		0
YHACYQA[Sar]CWIW (disulfide 4-9 (inferred), cyclic, disulfide) [SEQ ID NO 104]	12	19
YHACYQAGCAIW (disulfide 4-9 (inferred), cyclic, disulfide) [SEQ ID NO 136]	2	2
YSACYQAGCYIY (disulfide 4-9 (inferred), cyclic, disulfide) [SEQ ID NO 110]	10	2
YHACYQAGCYIY (disulfide 4-9 (inferred), cyclic, disulfide) [SEQ ID NO 108]		12
YAACYQAGCWIW (disulfide 4-9 (inferred), cyclic, disulfide) [SEQ ID NO 132]	53	37
YHACYQAGCWIY (disulfide 4-9 (inferred), cyclic, disulfide) [SEQ ID NO 106]	9	24

Source: patent US20080044360A1 (COLLAGEN MEDICAL, published 2008)
